Values quoted from earlier work, collected in paper PMC7764831.

Molecular target: p53 (Homo sapiens) (UniProt P04637)
Sequence (P04637 whole entry): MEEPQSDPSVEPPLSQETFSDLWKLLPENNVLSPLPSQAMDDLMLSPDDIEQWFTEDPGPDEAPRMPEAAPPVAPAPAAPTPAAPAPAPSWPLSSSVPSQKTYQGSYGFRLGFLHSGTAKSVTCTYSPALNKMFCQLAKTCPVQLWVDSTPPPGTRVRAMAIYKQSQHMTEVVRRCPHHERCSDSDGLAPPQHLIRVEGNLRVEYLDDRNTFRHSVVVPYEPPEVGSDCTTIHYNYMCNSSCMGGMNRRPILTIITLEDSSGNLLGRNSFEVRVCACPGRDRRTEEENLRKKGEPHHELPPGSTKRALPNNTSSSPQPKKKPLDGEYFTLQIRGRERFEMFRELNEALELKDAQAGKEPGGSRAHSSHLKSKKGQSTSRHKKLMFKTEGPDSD

Azurin, sequence (P00282 21-148): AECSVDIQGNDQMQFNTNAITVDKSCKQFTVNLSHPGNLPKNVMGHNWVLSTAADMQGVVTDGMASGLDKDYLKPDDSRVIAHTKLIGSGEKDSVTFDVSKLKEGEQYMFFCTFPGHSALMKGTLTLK

Azurin (from UniProt P00282)
Kd: 6 µM
